Results as given in US20150274829A1.

Target: hu IGF-1R(ECD)-C3-muIgG1 Fc (human; mouse)
Assay: ORIGEN dose response competition on IGF-1R(ECD)-C3-muFc beads; competitor 1 nM Ru-IGF-1

## murine anti-IGF-1R antibody αIR3 (Calbiochem)
  Max (%), maximum level of inhibition at 1 µM antibody concentration: 91%
